In US20160102123A1 one finds % concentration measured with CR9501 after 5 days and % CR9501 binding after 5 days data, which are given here for 1 substance.

The target of experiment [1] is B1_N67I, S215P loop (RSV B1) (UniProt O36634). Put plainly: quantitative Octet, CR9501 on sensor, culture supernatant.
The next experiment concerns the target B1_N67I, S215P (RSV B1) (UniProt O36634). Described as above.
In the next experiment the target is A2_F24 VI56IV (RSV A2) (UniProt P03420). Kind of experiment: Octet BLI endpoint, CR9501 on sensor, culture supernatant. For orientation: Biolayer interferometry detects binding as a change in optical thickness at a sensor tip.

As to CR9501 (antibody), the % concentration measured with CR9501 after 5 days at 4 C relative to day of harvest is 108% in experiment [1] and 90.9% with B1_N67I, S215P (RSV B1). The % CR9501 binding after 5 days at 4 C relative to day 1 with A2_F24 VI56IV (RSV A2) was determined as 54%.
